Patent US20250152746A1, “BASE EDITING OF ANGPTL3 AND METHODS OF USING SAME FOR TREATMENT OF DISEASE” (Verve Therapeutics, Inc., priority 2020, published 2025)
In the oligonucleotide strings, read from the 5' end, every base follows the letter of its sugar. An asterisk marks phosphorothioate; unmarked linkages are phosphodiester. Other units and linkages are bracketed, terminal groups are in braces. A string of capitals states the bases alone. m = 2'-O-methyl; r = 2'-OH (RNA)

B1: GA209: PCSK9 gRNA; protospacer CTTGGCAGTTGAGCACGCGC (SEQ ID NO: 203) (nucleic acid)
guide: CUUGGCAGUUGAGCACGCGCGUUUUAGAGCUAGAAAUAGCAAGUUAAAAUAAGGCUAGUCCGUUAUCAACUUGAAAAAGUGGCACCGAGUCGGUGCUUUU
modifications: sugars from the 5' end m3 r94 m3, linkages s3 o93 s3 (s phosphorothioate, o phosphodiester), T or U not given here
B2: GA211: PCSK9 gRNA; protospacer TGCGCGTGCTCAACTGCCAA (SEQ ID NO: 205) (nucleic acid)
guide: UGCGCGUGCUCAACUGCCAAGUUUUAGAGCUAGAAAUAGCAAGUUAAAAUAAGGCUAGUCCGUUAUCAACUUGAAAAAGUGGCACCGAGUCGGUGCUUUU
modifications: sugars from the 5' end m3 r94 m3, linkages s3 o93 s3 (s phosphorothioate, o phosphodiester), T or U not given here
B3: GA159: PCSK9 gRNA; protospacer GCGTTCCGAGGAGGACGGCC (SEQ ID NO: 153) (nucleic acid)
guide: mG*mC*mG*rUrUrCrCrGrArGrGrArGrGrArCrGrGrCrCrGrUrUrUrUrArGrArGrCrUrArGrArArArUrArGrCrArArGrUrUrArArArArUrArArGrGrCrUrArGrUrCrCrGrUrUrArUrCrArArCrUrUrGrArArArArArGrUrGrGrCrArCrCrGrArGrUrCrGrGrUrGrCrU*mU*mU*mU
B4: GA207: PCSK9 gRNA; protospacer GGAAATCGAGGGCAGGGTCA (SEQ ID NO: 201) (nucleic acid)
guide: GGAAAUCGAGGGCAGGGUCAGUUUUAGAGCUAGAAAUAGCAAGUUAAAAUAAGGCUAGUCCGUUAUCAACUUGAAAAAGUGGCACCGAGUCGGUGCUUUU
modifications: sugars from the 5' end m3 r94 m3, linkages s3 o93 s3 (s phosphorothioate, o phosphodiester), T or U not given here
B5: GA213: PCSK9 gRNA; protospacer CGTGCTCAACTGCCAAGGGA (SEQ ID NO: 207) (nucleic acid)
guide: CGUGCUCAACUGCCAAGGGAGUUUUAGAGCUAGAAAUAGCAAGUUAAAAUAAGGCUAGUCCGUUAUCAACUUGAAAAAGUGGCACCGAGUCGGUGCUUUU
modifications: sugars from the 5' end m3 r94 m3, linkages s3 o93 s3 (s phosphorothioate, o phosphodiester), T or U not given here
B6: GA206: PCSK9 gRNA; protospacer CCGGTGGTCACTCTGTATGC (SEQ ID NO: 200) (nucleic acid)
guide: CCGGUGGUCACUCUGUAUGCGUUUUAGAGCUAGAAAUAGCAAGUUAAAAUAAGGCUAGUCCGUUAUCAACUUGAAAAAGUGGCACCGAGUCGGUGCUUUU
modifications: sugars from the 5' end m3 r94 m3, linkages s3 o93 s3 (s phosphorothioate, o phosphodiester), T or U not given here
B7: GA214: PCSK9 gRNA; protospacer CCTTGGCCACGCCGGCATCC (SEQ ID NO: 208) (nucleic acid)
guide: CCUUGGCCACGCCGGCAUCCGUUUUAGAGCUAGAAAUAGCAAGUUAAAAUAAGGCUAGUCCGUUAUCAACUUGAAAAAGUGGCACCGAGUCGGUGCUUUU
modifications: sugars from the 5' end m3 r94 m3, linkages s3 o93 s3 (s phosphorothioate, o phosphodiester), T or U not given here
B8: GA205: PCSK9 gRNA; protospacer CCCTGCCCTCGATTTCCCGG (SEQ ID NO: 199) (nucleic acid)
guide: CCCUGCCCUCGAUUUCCCGGGUUUUAGAGCUAGAAAUAGCAAGUUAAAAUAAGGCUAGUCCGUUAUCAACUUGAAAAAGUGGCACCGAGUCGGUGCUUUU
modifications: sugars from the 5' end m3 r94 m3, linkages s3 o93 s3 (s phosphorothioate, o phosphodiester), T or U not given here
B9: GA215: PCSK9 gRNA; protospacer CAGCGGCCGGGATGCCGGCG (SEQ ID NO: 209) (nucleic acid)
guide: CAGCGGCCGGGAUGCCGGCGGUUUUAGAGCUAGAAAUAGCAAGUUAAAAUAAGGCUAGUCCGUUAUCAACUUGAAAAAGUGGCACCGAGUCGGUGCUUUU
modifications: sugars from the 5' end m3 r94 m3, linkages s3 o93 s3 (s phosphorothioate, o phosphodiester), T or U not given here
B10: GA210: PCSK9 gRNA; protospacer CTGCGCGTGCTCAACTGCCA (SEQ ID NO: 204) (nucleic acid)
guide: CUGCGCGUGCUCAACUGCCAGUUUUAGAGCUAGAAAUAGCAAGUUAAAAUAAGGCUAGUCCGUUAUCAACUUGAAAAAGUGGCACCGAGUCGGUGCUUUU
modifications: sugars from the 5' end m3 r94 m3, linkages s3 o93 s3 (s phosphorothioate, o phosphodiester), T or U not given here
B11: GA216: PCSK9 gRNA; protospacer CCGGGATGCCGGCGTGGCCA (SEQ ID NO: 210) (nucleic acid)
guide: CCGGGAUGCCGGCGUGGCCAGUUUUAGAGCUAGAAAUAGCAAGUUAAAAUAAGGCUAGUCCGUUAUCAACUUGAAAAAGUGGCACCGAGUCGGUGCUUUU
modifications: sugars from the 5' end m3 r94 m3, linkages s3 o93 s3 (s phosphorothioate, o phosphodiester), T or U not given here
B12: GA208: PCSK9 gRNA; protospacer CCAGCATACAGAGTGACCAC (SEQ ID NO: 202) (nucleic acid)
guide: CCAGCAUACAGAGUGACCACGUUUUAGAGCUAGAAAUAGCAAGUUAAAAUAAGGCUAGUCCGUUAUCAACUUGAAAAAGUGGCACCGAGUCGGUGCUUUU
modifications: sugars from the 5' end m3 r94 m3, linkages s3 o93 s3 (s phosphorothioate, o phosphodiester), T or U not given here
B13: GA212: PCSK9 gRNA; protospacer CGGGATGCCGGCGTGGCCAA (SEQ ID NO: 206) (nucleic acid)
guide: CGGGAUGCCGGCGUGGCCAAGUUUUAGAGCUAGAAAUAGCAAGUUAAAAUAAGGCUAGUCCGUUAUCAACUUGAAAAAGUGGCACCGAGUCGGUGCUUUU
modifications: sugars from the 5' end m3 r94 m3, linkages s3 o93 s3 (s phosphorothioate, o phosphodiester), T or U not given here

Each molecule was assayed on PCSK9 gene (assay: PCSK9 gRNA/SpCas9 editing in primary human hepatocytes (Tables 2, 4)). Details: 100 ng/RNA/mL; SpCas9 mRNA MS002 1:1 by weight.
Assay type: cell-based
Procedure, shortened: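 Editing at the PCSK9 site quantified by NGS of PCR amplicons from genomic DNA. Input: SpCas9 mRNA with gRNA, 1:1 by weight, transfected into primary human hepatocytes at 2500, 500 or 100 ng RNA/mL (tracr-modified guides at 2500, 1250, 500, 250 ng/mL).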
B1 was tested, and the “Human Primary Hepatocyte Editing % 100” value was 0.02%. In the case of B2, the “Human Primary Hepatocyte Editing % 100” value is reported as 1.31%. For B3, the “Human Primary Hepatocyte Editing % 100” value was 1.35%. For B4, the “Human Primary Hepatocyte Editing % 100” value was 0.84%. For B5, the “Human Primary Hepatocyte Editing % 100” value was 2.17%. B6 was tested, and the “Human Primary Hepatocyte Editing % 100” value was 0.85%. B7 was tested, and the “Human Primary Hepatocyte Editing % 100” value was 1.94%. B8 was tested, and the “Human Primary Hepatocyte Editing % 100” value was 3.74%. In the case of B9, the “Human Primary Hepatocyte Editing % 100” value is reported as 0.13%. For B10, the “Human Primary Hepatocyte Editing % 100” value was 0.04%. In the case of B11, the “Human Primary Hepatocyte Editing % 100” value is reported as 0.95%. For B12, the “Human Primary Hepatocyte Editing % 100” value was 1.38%. In the case of B13, the “Human Primary Hepatocyte Editing % 100” value is reported as 1.17%.

Same assay, conditions: 500 ng/RNA/mL; SpCas9 mRNA MS002 1:1 by weight
In the case of B1, the “Human Primary Hepatocyte Editing % 500” value is reported as 8.76%. For B2, the “Human Primary Hepatocyte Editing % 500” value was 10.29%. In the case of B3, the “Human Primary Hepatocyte Editing % 500” value is reported as 3.74%. With B4 the “Human Primary Hepatocyte Editing % 500” value was 3.46%. For B5, the “Human Primary Hepatocyte Editing % 500” value was 8.77%. With B6 the “Human Primary Hepatocyte Editing % 500” value was 2.7%. For B7, the “Human Primary Hepatocyte Editing % 500” value was 6.28%. In the case of B8, the “Human Primary Hepatocyte Editing % 500” value is reported as 12.42%. B9 was tested, and the “Human Primary Hepatocyte Editing % 500” value was 1.01%. With B10 the “Human Primary Hepatocyte Editing % 500” value was 5.86%. B11 was tested, and the “Human Primary Hepatocyte Editing % 500” value was 3.7%. In the case of B12, the “Human Primary Hepatocyte Editing % 500” value is reported as 5.72%. For B13, the “Human Primary Hepatocyte Editing % 500” value was 5.59%.

Same assay, conditions: 2500 ng/RNA/mL; SpCas9 mRNA MS002 1:1 by weight
With B1 the “Human Primary Hepatocyte Editing % 2500” value was 33.23%. B2 was tested, and the “Human Primary Hepatocyte Editing % 2500” value was 38.07%. B3 was tested, and the “Human Primary Hepatocyte Editing % 2500” value was 14.68%. In the case of B4, the “Human Primary Hepatocyte Editing % 2500” value is reported as 20.79%. B5 was tested, and the “Human Primary Hepatocyte Editing % 2500” value was 24.28%. For B6, the “Human Primary Hepatocyte Editing % 2500” value was 20.73%. In the case of B7, the “Human Primary Hepatocyte Editing % 2500” value is reported as 22.92%. With B8 the “Human Primary Hepatocyte Editing % 2500” value was 38.04%. In the case of B9, the “Human Primary Hepatocyte Editing % 2500” value is reported as 4.94%. B10 was tested, and the “Human Primary Hepatocyte Editing % 2500” value was 14.3%. In the case of B11, the “Human Primary Hepatocyte Editing % 2500” value is reported as 14.65%. In the case of B12, the “Human Primary Hepatocyte Editing % 2500” value is reported as 25.76%. With B13 the “Human Primary Hepatocyte Editing % 2500” value was 12.45%.

What follows are molecules tested on PCSK9 gene (assay: PCSK9 gRNA/SpCas9 editing in primary cynomolgus hepatocytes (Tables 2, 22)). Details: 100 ng/RNA/mL; SpCas9 mRNA MS002 1:1 by weight.
Assay type: cell-based, cynomolgus monkey
In the case of B1, the “Cyno Primary Hepatocyte Editing % 100” value is reported as 3.59%. B2 was tested, and the “Cyno Primary Hepatocyte Editing % 100” value was 1.01%. In the case of B3, the “Cyno Primary Hepatocyte Editing % 100” value is reported as 1.19%. In the case of B4, the “Cyno Primary Hepatocyte Editing % 100” value is reported as 1.05%. In the case of B5, the “Cyno Primary Hepatocyte Editing % 100” value is reported as 2.73%. B6 was tested, and the “Cyno Primary Hepatocyte Editing % 100” value was 0.84%. For B7, the “Cyno Primary Hepatocyte Editing % 100” value was 3.06%. With B8 the “Cyno Primary Hepatocyte Editing % 100” value was 3.01%. In the case of B10, the “Cyno Primary Hepatocyte Editing % 100” value is reported as 4.5%. For B11, the “Cyno Primary Hepatocyte Editing % 100” value was 1.77%. B12 was tested, and the “Cyno Primary Hepatocyte Editing % 100” value was 1.15%. In the case of B13, the “Cyno Primary Hepatocyte Editing % 100” value is reported as 1.96%.

Same assay, conditions: 500 ng/RNA/mL; SpCas9 mRNA MS002 1:1 by weight
B1 was tested, and the “Cyno Primary Hepatocyte Editing % 500” value was 13.96%. B2 was tested, and the “Cyno Primary Hepatocyte Editing % 500” value was 8.3%. With B3 the “Cyno Primary Hepatocyte Editing % 500” value was 3.69%. B4 was tested, and the “Cyno Primary Hepatocyte Editing % 500” value was 2.72%. For B5, the “Cyno Primary Hepatocyte Editing % 500” value was 16.35%. For B6, the “Cyno Primary Hepatocyte Editing % 500” value was 2.73%. For B7, the “Cyno Primary Hepatocyte Editing % 500” value was 14.84%. For B8, the “Cyno Primary Hepatocyte Editing % 500” value was 12.04%. B9 was tested, and the “Cyno Primary Hepatocyte Editing % 500” value was 1.07%. B10 was tested, and the “Cyno Primary Hepatocyte Editing % 500” value was 19.72%. B11 was tested, and the “Cyno Primary Hepatocyte Editing % 500” value was 4.97%. In the case of B12, the “Cyno Primary Hepatocyte Editing % 500” value is reported as 6.01%. With B13 the “Cyno Primary Hepatocyte Editing % 500” value was 16.53%.

Same assay, conditions: 2500 ng/RNA/mL; SpCas9 mRNA MS002 1:1 by weight
With B1 the “Cyno Primary Hepatocyte Editing % 2500” value was 40.78%. In the case of B2, the “Cyno Primary Hepatocyte Editing % 2500” value is reported as 28.63%. With B3 the “Cyno Primary Hepatocyte Editing % 2500” value was 12.21%. For B4, the “Cyno Primary Hepatocyte Editing % 2500” value was 19.16%. B5 was tested, and the “Cyno Primary Hepatocyte Editing % 2500” value was 45.22%. B6 was tested, and the “Cyno Primary Hepatocyte Editing % 2500” value was 16.9%. For B7, the “Cyno Primary Hepatocyte Editing % 2500” value was 50.35%. For B8, the “Cyno Primary Hepatocyte Editing % 2500” value was 36.43%. B9 was tested, and the “Cyno Primary Hepatocyte Editing % 2500” value was 7.52%. In the case of B10, the “Cyno Primary Hepatocyte Editing % 2500” value is reported as 54.88%. With B11 the “Cyno Primary Hepatocyte Editing % 2500” value was 37.79%. B12 was tested, and the “Cyno Primary Hepatocyte Editing % 2500” value was 25.07%. For B13, the “Cyno Primary Hepatocyte Editing % 2500” value was 54.89%.
